Test results taken from publication PMC6425953 (Cell reports, 2019).

B1: GST-Rng10(751–1,038) (domain or fragment)
chain: SNSKAPAIEETTTTKVEVVAAHDAVSISSNSSTHKSHSEPLNRDELEVAALSRGSLPEPPKPNKQIVVQEEDQRDTLSLKTSTTGLSSHSKSAENNSTQQSTTSPSINSGASADAVSSGISKKADNSETNLNYFATLDAFVKSPLMSFDGLGELGSTDQRYNFFNQKIQEYSAYDSGLDNWIQFCLEKDGEAPKEAPPPPRSEPVSTTTKLAKRITQPSLSPARSTVTITHNIATEAKKKSKSAANDILHLFKKKAKSEQSNAKSSSSSIKESKKMKTLFGKKLGFKS
B2: His6-Rga7(1–320) (domain or fragment)
chain: MLSAPSSSTTPASPPTSPPNTTSSDDFAVLKEPKVEAILNSELGLAILNDRIKDYLLTCKELAGFFKKRSILEEESGKNLQKLAKSYLETFQSKHHSPQSFSASVITSMEIHEQLANHSLTLQKTLSAFSDQVIEFHKNAERKRKSIKEYAKKQENAYLEAVMQMDKSKSRFKGAETEYNRALDNKNTGDSQKKVGFFKPKSNAQLTKLEDEARLKAENAESDMHSKIENAQNVQKQLLCIHRPNYIKQFFSLQREIESSLIANYLRYTKLCESNTLLNGLTIRPQKPTPTNCGLQHALDNINANTDFVQYVLHASIKHE
B3: GST-Rng10(751–950) (domain or fragment)
chain: SNSKAPAIEETTTTKVEVVAAHDAVSISSNSSTHKSHSEPLNRDELEVAALSRGSLPEPPKPNKQIVVQEEDQRDTLSLKTSTTGLSSHSKSAENNSTQQSTTSPSINSGASADAVSSGISKKADNSETNLNYFATLDAFVKSPLMSFDGLGELGSTDQRYNFFNQKIQEYSAYDSGLDNWIQFCLEKDGEAPKEAPPPP

Legend:
His6-Rga7(1–320) = biological target: B2; experiment: supernatant depletion assay
AUC = biological target: the molecule itself; experiment: AUC

| Binder | Kd (His6-Rga7(1–320)) [nM] | stoichiometry N (AUC) |
| --- | --- | --- |
| B1 | 430 |  |
| B2 |  | 2 |
| B3 | 690 |  |
